This is an account of results in PMC2856799.

The target in assay [1] is Insulin (Pekar and Frank 1972 preparation). The experiment in a line: Sedimentation equilibrium. To be noted: pH 7.0; 24.5 °C; ionic strength 0.1; not stated (pH 7.0); scale: log10; cited from earlier work.
Assay [2] addresses Insulin (zinc-free) (UniProt P01317). Put plainly: Composition-gradient static light scattering. The note with it: pH 10.0, 25 °C, 0.095 M NaCl, 5.3 mM glycine, 3.2 mM NaOH, scale: log10.
Chain of UniProt P01317 (P01317 whole entry): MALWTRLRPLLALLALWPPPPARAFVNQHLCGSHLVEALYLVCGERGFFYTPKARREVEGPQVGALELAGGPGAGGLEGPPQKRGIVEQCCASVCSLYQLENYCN

“Insulin (Pekar and Frank 1972 preparation)”: in assay [1], the log10(K6a) (stepwise hexamer addition) is 3.69, the log10(K12) (monomer-dimer) was 5.64, the log10(K26) (3 dimers -> hexamer) was 8.36 and the log10(Ka) (isodesmic) was 4.43.

With Insulin (zinc-free), the log10(Ka) (enhanced isodesmic; monomer addition to dimer and higher oligomers) in assay [2] turned out to be 3.82.
